How the values were obtained:
human CLDN18.2 [1] = biological target: human CLDN18.2 (human); test: cell-based or functional assay
human CLDN18.1 = biological target: T1, human CLDN18.1 (human, UniProt P56856 1-261); test: FACS on HEK293/hCLDN18.1 cells
T1 construct: whole, on cells; also called hCLDN18.1
Experimental: (§1) Antibodies were assayed for binding affinity by FACS. Test cells include HEK293/hCLDN18.2, HEK293/hCLDN18.1, NUGC4_D8 and Jurkat cells. […] The cell density was adjusted to 10⁶ cells/mL, and 50 μL of the cell suspension was added to each well of a 96-well plate. Antibodies were diluted to different concentrations with FACS buffer, and 50 μL of the antibody dilution was added to each well of the 96-well plate. After 2 h of incubation at 4° C., the plate was washed twice with FACS buffer. […] After 1 h of incubation at 4° C., the plate was washed twice with FACS buffer. The cells were resuspended in fixative solution, and then the fluorescence of the cells was monitored using an FACS instrument (ACEA NovoCyte).

human CLDN18.2 [2] = biological target: T2, human CLDN18.2 (human); test: FACS on NUGC4_D8 cells
T2 construct: the HEK293 line was made with a GenScript plasmid; also called hCLDN18.2

[3] = biological target: T3, human CD3 on Jurkat cells (human, UniProt P07766 23-207); test: FACS on Jurkat cells (CD3)
T3 construct: whole, on cells; on cells it stands in the whole CD3/TCR complex; also called CD3-expressing cells
T3 sequence (P07766 23-207): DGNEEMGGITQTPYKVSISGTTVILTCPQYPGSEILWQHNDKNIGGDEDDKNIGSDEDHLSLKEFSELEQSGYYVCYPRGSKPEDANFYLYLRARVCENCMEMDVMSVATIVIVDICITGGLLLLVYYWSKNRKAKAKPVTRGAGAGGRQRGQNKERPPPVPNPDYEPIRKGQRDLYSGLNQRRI
Experimental: as §1

[4] = biological target: CLDN18.2 of SNU620 cells (methionine to leucine at amino acid 149) (human, UniProt P56856-2 1-261); test: cell-based or functional assay
CLDN18.2 of SNU620 cells (methionine to leucine at amino acid 149), sequence (P56856 other isoform, or with tags, fused parts or gaps limits assumed): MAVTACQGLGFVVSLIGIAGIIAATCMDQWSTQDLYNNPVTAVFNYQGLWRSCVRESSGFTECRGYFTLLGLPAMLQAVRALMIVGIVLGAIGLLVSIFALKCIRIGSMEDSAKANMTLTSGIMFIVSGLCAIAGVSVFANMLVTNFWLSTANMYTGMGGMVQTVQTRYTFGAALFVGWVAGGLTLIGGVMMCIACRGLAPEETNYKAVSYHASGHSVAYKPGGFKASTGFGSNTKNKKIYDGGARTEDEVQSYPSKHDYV

[5] = biological target: T3, human CD3 on Jurkat cells; test: FACS on Jurkat cells
Experimental: as §1

human CLDN18.2 [6] = biological target: T2, human CLDN18.2; test: FACS on HEK293/hCLDN18.2 cells
Experimental: as §1

T1 sequence (P56856 whole entry): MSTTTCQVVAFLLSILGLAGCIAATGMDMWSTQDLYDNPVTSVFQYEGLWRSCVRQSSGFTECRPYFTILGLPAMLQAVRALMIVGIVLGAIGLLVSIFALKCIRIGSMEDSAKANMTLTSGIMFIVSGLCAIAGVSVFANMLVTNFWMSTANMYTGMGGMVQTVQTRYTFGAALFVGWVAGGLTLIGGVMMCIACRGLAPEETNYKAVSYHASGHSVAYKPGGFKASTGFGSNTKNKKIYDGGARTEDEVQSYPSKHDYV

TDCC, Titer EC50 (pM), NUGC4_D8 (human CLDN18.2 [1]) [pM] | binding result (human CLDN18.1) | EC50 (human CLDN18.2 [2]) [nM] | binding result [3] | TDCC, Titer EC50 (pM), SNU620 [4] [pM] | EC50 [5] [nM] | EC50 (human CLDN18.2 [6]) [nM] | Binder
30.6 | no binding | 20.5 | binds | – | – | – | PR005518 (bispecific antibody, structure 2 (2+1 HCAb-Fc-Fab, CD3 VH-CH1 at the C-terminus of one HCAb chain); PR001848 / PR004533; LALA) chain 1: EVQLVESGGGLVQPGGSLRLSCAASGFTFSSYWMHWVRQVPGKGLVWVSRINSDGSRTIYADSVKGRFTISRDNAKNTLYLQMNSLRAEDTAVYYCARGEDHDILTGYPIRGQGTTVTVSSASEPKSSDKTHTCPPCPAPEAAGGPSVFLFPPKPKDTLMISRTPEVTCVVVDVSHEDPEVKFNWYVDGVEVHNAKTKPREEQYNSTYRVVSVLTVLHQDWLNGKEYKCKVSNKALPAPIEKTISKAKGQPREPQVCTLPPSREEMTKNQVSLSCAVKGFYPSDIAVEWESNGQPENNYKTTPPVLDSDGSFFLVSKLTVDKSRWQQGNVFSCSVMHEALHNHYTQKSLSLSPGK chain 2: not shown light: QAVVTQEPSLTVSPGGTVTLTCRSSTGAVTTSNYANWVQQKPGQAPRGLIGGTNKRAPWTPARFSGSLLGDKAALTLLGAQPEDEAEYFCALWYSNLWVFGGGTKLTVLGQPKAAPSVTLFPPSSEELQANKATLVCLISDFYPGAVTVAWKADSSPVKAGVETTTPSKQSNNKYAASSYLSLTPEQWKSHRSYSCQVTHEGSTVEKTVAPTECS
186 | no binding | 13.9 | binds | – | – | – | PR005522 (bispecific antibody, human IgG1, lambda, L234A L235A, PR001848 / PR004533; LALA) EVQLVESGGGLVQPGGSLRLSCAASGFTFSSYWMHWVRQVPGKGLVWVSRINSDGSRTIYADSVKGRFTISRDNAKNTLYLQMNSLRAEDTAVYYCARGEDHDILTGYPIRGQGTTVTVSSGGGGSGGGGSGGGGSEVQLVESGGGLVQPGGSLRLSCAASGFTFSSYWMHWVRQVPGKGLVWVSRINSDGSRTIYADSVKGRFTISRDNAKNTLYLQMNSLRAEDTAVYYCARGEDHDILTGYPIRGQGTTVTVSSASEPKSSDKTHTCPPCPAPEAAGGPSVFLFPPKPKDTLMISRTPEVTCVVVDVSHEDPEVKFNWYVDGVEVHNAKTKPREEQYNSTYRVVSVLTVLHQDWLNGKEYKCKVSNKALPAPIEKTISKAKGQPREPQVCTLPPSREEMTKNQVSLSCAVKGFYPSDIAVEWESNGQPENNYKTTPPVLDSDGSFFLVSKLTVDKSRWQQGNVFSCSVMHEALHNHYTQKSLSLSPGK heavy: not shown light: QAVVTQEPSLTVSPGGTVTLTCRSSTGAVTTSNYANWVQQKPGQAPRGLIGGTNKRAPWTPARFSGSLLGDKAALTLLGAQPEDEAEYFCALWYSNLWVFGGGTKLTVLGQPKAAPSVTLFPPSSEELQANKATLVCLISDFYPGAVTVAWKADSSPVKAGVETTTPSKQSNNKYAASSYLSLTPEQWKSHRSYSCQVTHEGSTVEKTVAPTECS
32.9 | no binding | 13.9 | binds | 70.5 | – | – | PR005519 (bispecific antibody, structure 3 (2+1 HCAb-Fc-Fab, CD3 VL-CL at the C-terminus of one HCAb chain; third chain is CD3 VH-CH1); PR001848 / PR004533; LALA) chain 1: EVQLVESGGGLVQPGGSLRLSCAASGFTFSSYWMHWVRQVPGKGLVWVSRINSDGSRTIYADSVKGRFTISRDNAKNTLYLQMNSLRAEDTAVYYCARGEDHDILTGYPIRGQGTTVTVSSASEPKSSDKTHTCPPCPAPEAAGGPSVFLFPPKPKDTLMISRTPEVTCVVVDVSHEDPEVKFNWYVDGVEVHNAKTKPREEQYNSTYRVVSVLTVLHQDWLNGKEYKCKVSNKALPAPIEKTISKAKGQPREPQVCTLPPSREEMTKNQVSLSCAVKGFYPSDIAVEWESNGQPENNYKTTPPVLDSDGSFFLVSKLTVDKSRWQQGNVFSCSVMHEALHNHYTQKSLSLSPGK chain 2: not shown chain 3: EVQLLESGGGLVQPGGSLRLSCAASGFTFSTYAMNWVRQAPGKGLEWVSRIRSKYNNYATYYADSVKDRFTISRDDSKSTLYLQMNSLRAEDTAVYYCVRHGNFGNSYVSWFAYWGQGTLVTVSSASTKGPSVFPLAPSSKSTSGGTAALGCLVKDYFPEPVTVSWNSGALTSGVHTFPAVLQSSGLYSLSSVVTVPSSSLGTQTYICNVNHKPSNTKVDKKVEPKSC
28.9 | no binding | 12.6 | – | – | 26.8 | – | PR005525 (bispecific antibody, human IgG1, lambda, L234A L235A, structure 7 (3+1 Fab-Fc-VH-VH-VH); PR003886 / PR004533; LALA) EVQLVESGGGLVQPGGSLRLSCAASGFTFSSYWMHWVRQVPGKGLVWVSRINSDGSRTIYADSVKGRFTISRDNAKNTLYLQMNSLRAEDTAVYYCARGEDHDILTGYPIRGQGTTVTVSSGGGGSGGGGSGGGGSEVQLVESGGGLVQPGGSLRLSCAASGFTFSSYWMHWVRQVPGKGLVWVSRINSDGSRTIYADSVKGRFTISRDNAKNTLYLQMNSLRAEDTAVYYCARGEDHDILTGYPIRGQGTTVTVSSGGGGSGGGGSGGGGSEVQLVESGGGLVQPGGSLRLSCAASGFTFSSYWMHWVRQVPGKGLVWVSRINSDGSRTIYADSVKGRFTISRDNAKNTLYLQMNSLRAEDTAVYYCARGEDHDILTGYPIRGQGTTVTVSSASEPKSSDKTHTCPPCPAPEAAGGPSVFLFPPKPKDTLMISRTPEVTCVVVDVSHEDPEVKFNWYVDGVEVHNAKTKPREEQYNSTYRVVSVLTVLHQDWLNGKEYKCKVSNKALPAPIEKTISKAKGQPREPQVCTLPPSREEMTKNQVSLSCAVKGFYPSDIAVEWESNGQPENNYKTTPPVLDSDGSFFLVSKLTVDKSRWQQGNVFSCSVMHEALHNHYTQKSLSLSPGK heavy: not shown light: QAVVTQEPSLTVSPGGTVTLTCRSSTGAVTTSNYANWVQQKPGQAPRGLIGGTNKRAPWTPARFSGSLLGDKAALTLLGAQPEDEAEYFCALWYSNLWVFGGGTKLTVLGQPKAAPSVTLFPPSSEELQANKATLVCLISDFYPGAVTVAWKADSSPVKAGVETTTPSKQSNNKYAASSYLSLTPEQWKSHRSYSCQVTHEGSTVEKTVAPTECS
11 | no binding | 12.6 | binds | – | – | – | PR005354 (bispecific antibody, human IgG1, lambda, L234A L235A, structure 1; CD3 Fab from PR001848, CLDN18.2 VH from PR004533; LALA) EVQLVESGGGLVQPGGSLRLSCAASGFTFSSYWMHWVRQVPGKGLVWVSRINSDGSRTIYADSVKGRFTISRDNAKNTLYLQMNSLRAEDTAVYYCARGEDHDILTGYPIRGQGTTVTVSSGGGGSGGGGSGGGGSEVQLVESGGGLVQPGGSLRLSCAASGFTFSSYWMHWVRQVPGKGLVWVSRINSDGSRTIYADSVKGRFTISRDNAKNTLYLQMNSLRAEDTAVYYCARGEDHDILTGYPIRGQGTTVTVSSASEPKSSDKTHTCPPCPAPEAAGGPSVFLFPPKPKDTLMISRTPEVTCVVVDVSHEDPEVKFNWYVDGVEVHNAKTKPREEQYNSTYRVVSVLTVLHQDWLNGKEYKCKVSNKALPAPIEKTISKAKGQPREPQVCTLPPSREEMTKNQVSLSCAVKGFYPSDIAVEWESNGQPENNYKTTPPVLDSDGSFFLVSKLTVDKSRWQQGNVFSCSVMHEALHNHYTQKSLSLSPGK heavy: not shown light: QAVVTQEPSLTVSPGGTVTLTCRSSTGAVTTSNYANWVQQKPGQAPRGLIGGTNKRAPWTPARFSGSLLGDKAALTLLGAQPEDEAEYFCALWYSNLWVFGGGTKLTVLGQPKAAPSVTLFPPSSEELQANKATLVCLISDFYPGAVTVAWKADSSPVKAGVETTTPSKQSNNKYAASSYLSLTPEQWKSHRSYSCQVTHEGSTVEKTVAPTECS
14.8 | – | – | – | 41.1 | 81.9 | 25.3 | PR005399 (bispecific antibody, human IgG1, lambda, L234A L235A, structure 1; CD3 Fab from PR003886, CLDN18.2 VH from PR007243; LALA) EVQLVESGGGLVQPGGSLRLSCAASGFTFSSYWMHWVRQVPGKGLVWVSRISSAGSRTIYADSVKGRFTISRDNAKNTLYLQMNSLRAEDTAVYYCARGEDHDILTGYPIRGQGTTVTVSSGGGGSGGGGSGGGGSEVQLVESGGGLVQPGGSLRLSCAASGFTFSSYWMHWVRQVPGKGLVWVSRISSAGSRTIYADSVKGRFTISRDNAKNTLYLQMNSLRAEDTAVYYCARGEDHDILTGYPIRGQGTTVTVSSASEPKSSDKTHTCPPCPAPEAAGGPSVFLFPPKPKDTLMISRTPEVTCVVVDVSHEDPEVKFNWYVDGVEVHNAKTKPREEQYNSTYRVVSVLTVLHQDWLNGKEYKCKVSNKALPAPIEKTISKAKGQPREPQVCTLPPSREEMTKNQVSLSCAVKGFYPSDIAVEWESNGQPENNYKTTPPVLDSDGSFFLVSKLTVDKSRWQQGNVFSCSVMHEALHNHYTQKSLSLSPGK heavy: not shown light: QAVVTQEPSLTVSPGGTVTLTCRSSTGAVTTSNYANWVQQKPGQAPRGLIGGTNKRAPWTPARFSGSLLGDKAALTLLGAQPEDEAEYFCALWYSNLWVFGGGTKLTVLGQPKAAPSVTLFPPSSEELQANKATLVCLISDFYPGAVTVAWKADSSPVKAGVETTTPSKQSNNKYAASSYLSLTPEQWKSHRSYSCQVTHEGSTVEKTVAPTECS
– | – | 44.2 | – | – | 41 | – | PR007082 (bispecific antibody, human IgG1, lambda, structure 1; CD3 Fab from PR003886, CLDN18.2 VH from PR007248; AAA) EVQLVESGGGLVQPGGSLRLSCAASGFTFSSYWMHWVRQVPGKGLVWVSRINHDSSRTIYADSVKGRFTISRDNAKNTLYLQMNSLRAEDTAVYYCARGEDHDILTGYPIRGQGTTVTVSSGGGGSGGGGSGGGGSEVQLVESGGGLVQPGGSLRLSCAASGFTFSSYWMHWVRQVPGKGLVWVSRINHDSSRTIYADSVKGRFTISRDNAKNTLYLQMNSLRAEDTAVYYCARGEDHDILTGYPIRGQGTTVTVSSASEPKSSDKTHTCPPCPAPEAAGAPSVFLFPPKPKDTLMISRTPEVTCVVVDVSHEDPEVKFNWYVDGVEVHNAKTKPREEQYNSTYRVVSVLTVLHQDWLNGKEYKCKVSNKALPAPIEKTISKAKGQPREPQVCTLPPSREEMTKNQVSLSCAVKGFYPSDIAVEWESNGQPENNYKTTPPVLDSDGSFFLVSKLTVDKSRWQQGNVFSCSVMHEALHNHYTQKSLSLSPGK heavy: EVQLVESGGGLVQPGGSLKLSCAASGFTFSTYAMNWVRQASGKGLEWVGRIRSKYNNYATYYADSVKDRFTISRDDSKNTAYLQMNSLKTEDTAVYYCTRHGNFGNSYVSWFAYWGQGTLVTVSSASTKGPSVFPLAPSSKSTSGGTAALGCLVKDYFPEPVTVSWNSGALTSGVHTFPAVLQSSGLYSLSSVVTVPSSSLGTQTYICNVNHKPSNTKVDKKVEPKSCDKTHTCPPCPAPEAAGAPSVFLFPPKPKDTLMISRTPEVTCVVVDVSHEDPEVKFNWYVDGVEVHNAKTKPREEQYNSTYRVVSVLTVLHQDWLNGKEYKCKVSNKALPAPIEKTISKAKGQPREPQVYTLPPCREEMTKNQVSLWCLVKGFYPSDIAVEWESNGQPENNYKTTPPVLDSDGSFFLYSKLTVDKSRWQQGNVFSCSVMHEALHNHYTQKSLSLSPGK light: QAVVTQEPSLTVSPGGTVTLTCRSSTGAVTTSNYANWVQQKPGQAPRGLIGGTNKRAPWTPARFSGSLLGDKAALTLLGAQPEDEAEYFCALWYSNLWVFGGGTKLTVLGQPKAAPSVTLFPPSSEELQANKATLVCLISDFYPGAVTVAWKADSSPVKAGVETTTPSKQSNNKYAASSYLSLTPEQWKSHRSYSCQVTHEGSTVEKTVAPTECS
